Test [1] has as its target human CTLA-4-Fc (Chimerigen) (human) (UniProt P16410). The test can be described thus: FACS competition: inhibition of 2.5 nM hCTLA-4 Fc binding to Raji cells (B7.1, B7.2).
The target is the same in test [2]. Nature of the test: competition FACS: HuCTLA4-Ig 5 ug/ml (as printed on the axis) pre-incubated with the antagonist, then staining of P815 cells transfected with human B7.2; blocked ligand B7.2.
Test [3] addresses human CTLA-4 on the cell surface (transfected CHO and A431 cells; CD152-expressing cells of human tonsil) (human) (UniProt P16410). Nature of the test: indirect immunoperoxidase staining of cryosections; spleen HT337, mononuclear cells, white pulp (membrane, frequent); 5 µg/mL [Fig.20 continued, no label on the sheet].
Test [4] has the same target. Nature of the test: indirect immunoperoxidase staining of cryosections; tonsil HT664, mononuclear cells, follicular>>interfollicular (membrane); 5 µg/mL [Fig.20 continued, no label on the sheet].
The target is the same in test [5]. Nature of the test: indirect immunoperoxidase staining of cryosections; CD152-expressing cells in human tonsil (positive control tissue), source HT343; 5 µg/mL; scale ± to 4+ (4+ = intense).
The target is the same in test [6]. The test can be described thus: indirect immunoperoxidase staining of cryosections; CD152-expressing cells in human tonsil (positive control tissue), source HT662; 5 µg/mL; scale ± to 4+ (4+ = intense).
Test [7] has the same target. The test can be described thus: indirect immunoperoxidase staining of cryosections; kidney HT268, mononuclear cells, interstitial, inflammatory (membrane, rare); 5 µg/mL [Fig.20 continued, no label on the sheet].
Test [8] has as its target human CTLA-4-Fc (Chimerigen) (human) (UniProt P16410). The test can be described thus: competition FACS: 2.5 nM human CTLA-4 Fc pre-incubated with the antagonist, then staining of Raji cells; % inhibition of CTLA-4 Fc binding; blocked ligands B7.1 and B7.2.
Test [9] deals with mouse CTLA-4 Fc (Chimerigen) (mouse) (UniProt P09793). The test can be described thus: FACS competition: inhibition of 2.5 nM mCTLA-4 Fc binding to Raji cells (B7.1, B7.2).

The record followed here is US20090042785A1.

The term IC50 denotes the concentration at which inhibition is half-maximal. A low value points to greater potency in that assay.

Regarding “anti-human CTLA-4 monoclonal antibody 14D3 (eBioscience)”, in test [1], the IC50 is 1.9 nM. Further, the IC50 (read off the curve) in test [2] amounted to 50 nM.

In [1], “anti-human CTLA-4 monoclonal antibody BNI3 (Becton Dickinson)” gave an IC50 of 2.1 nM. Besides, the staining intensity grade in test [3], in [4], in [5], in test [6] and in test [7] was 4 + throughout. The substance also returned an IC50 (read off the curve) in test [8] of 2 nM.

For the substance “anti-mouse CTLA-4 monoclonal antibody 4F10 (hybridoma UC10-4F10-11, ATCC #HB-304)”, the IC50 in test [9] was found to be 4.1 nM.
